# Laboratory results from paper PMC2491553, “P68 RNA Helicase (DDX5) Alters Activity of Cis- and Trans-Acting Factors of the Alternative Splicing of H-Ras”.
# T1: GST-hnRNP H (GST-H) (UniProt P31943 1-449)
# T1 sequence: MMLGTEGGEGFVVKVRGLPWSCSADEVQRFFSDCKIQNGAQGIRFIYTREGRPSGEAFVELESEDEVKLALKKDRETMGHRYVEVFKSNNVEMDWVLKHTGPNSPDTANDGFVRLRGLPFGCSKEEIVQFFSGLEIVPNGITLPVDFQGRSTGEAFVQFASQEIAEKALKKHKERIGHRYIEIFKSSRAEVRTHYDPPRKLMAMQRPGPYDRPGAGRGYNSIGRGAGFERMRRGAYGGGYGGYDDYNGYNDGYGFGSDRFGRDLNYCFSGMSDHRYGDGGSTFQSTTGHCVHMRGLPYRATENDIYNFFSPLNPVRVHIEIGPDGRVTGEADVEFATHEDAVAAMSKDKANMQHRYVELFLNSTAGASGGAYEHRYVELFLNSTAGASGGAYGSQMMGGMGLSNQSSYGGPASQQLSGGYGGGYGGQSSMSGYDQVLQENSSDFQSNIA
# How the values were obtained:
# GST-FUS (FUS/TLS) = GST-FUS (FUS/TLS) (UniProt P35637 1-526); assay: EMSA; GST-FUS; Crosslinking: 1x Roeder D buffer, 1 mM ATP, 1.7 mM MgCl2, 0.1 uM heparin, 30 min 30 C; EMSA: 1 pmol 32P-RNA, native 6-8% PAGE, buffer details not in material; conditions: protein: recombinant; tags: GST; label: 32P
# Chain of GST-FUS (FUS/TLS) (P35637 whole entry): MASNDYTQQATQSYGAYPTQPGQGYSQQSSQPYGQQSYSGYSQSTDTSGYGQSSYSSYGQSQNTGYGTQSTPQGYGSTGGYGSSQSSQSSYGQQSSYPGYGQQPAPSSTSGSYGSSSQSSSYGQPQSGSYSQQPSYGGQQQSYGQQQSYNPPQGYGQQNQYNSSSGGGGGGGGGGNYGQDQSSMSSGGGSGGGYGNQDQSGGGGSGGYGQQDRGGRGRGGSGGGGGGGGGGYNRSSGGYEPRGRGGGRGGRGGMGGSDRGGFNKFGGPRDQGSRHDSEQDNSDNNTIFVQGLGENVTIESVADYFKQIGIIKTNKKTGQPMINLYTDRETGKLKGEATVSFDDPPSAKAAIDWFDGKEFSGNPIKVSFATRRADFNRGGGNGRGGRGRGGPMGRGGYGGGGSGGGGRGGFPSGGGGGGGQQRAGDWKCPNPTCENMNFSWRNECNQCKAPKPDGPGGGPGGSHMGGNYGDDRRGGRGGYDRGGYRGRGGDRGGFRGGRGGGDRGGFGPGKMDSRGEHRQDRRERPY
# GST-hnRNP H (GST-H) = molecular target: T1, GST-hnRNP H (GST-H); assay: EMSA; 100-400 ng GST-H; Crosslinking: 1x Roeder D buffer, 1 mM ATP, 1.7 mM MgCl2, 0.1 uM heparin, 30 min 30 C; EMSA: 1 pmol 32P-RNA, native 6-8% PAGE, buffer details not in material; conditions: protein: recombinant; tags: GST; label: 32P
Binder,binding result (GST-FUS (FUS/TLS)),binding result (GST-hnRNP H (GST-H))
GGGACGGCAGGGCGUGAGGGAGGCGAGGGCCGGGGUCUGGGCUCACGCCC (ssRNA) [rasISS1],no binding,binds
GGGACGCCGGGGUCUGGGCUCACGCCC (ssRNA) [ΔrasISS1],,no binding
